Assay results reported in publication PMC8780864, “Experimental Evidence of Intrinsic Disorder and Amyloid Formation by the Henipavirus W Proteins” (International Journal of Molecular Sciences, 2022).

How the values were obtained:
[1] = target: Nipah virus (Malaysia strain) W protein, N-terminally hexahistidine tagged (from pDEST17OI/NiVW) (Nipah virus (Malaysia strain)) (UniProt P0C1C7); experiment: SEC
[2] = target: Nipah virus (Malaysia strain) W protein, N-terminally hexahistidine tagged (from pDEST17OI/NiVW) (Nipah virus (Malaysia strain)) (UniProt P0C1C7); experiment: MALDI-TOF MS of the intact protein
[3] = target: the molecule itself; experiment: MALDI-TOF MS of the intact protein

Molecule | stoichiometry N [1] | stoichiometry N [2] | stoichiometry N [3]
Nipah virus (Malaysia strain) W protein, N-terminally hexahistidine tagged (from pDEST17OI/NiVW) (from UniProt P0C1C7 1-450) (natural protein) | 2 | 2 | –
Hendra virus W protein, N-terminally hexahistidine tagged (from pDEST17OI/HeVW) (natural protein, not shown: His6, N-terminal, kept) MDKLDLVNDGLDIIDFIQKNQKEIQKTYGRSSIQQPSTKDRTRAWEDFLQSTSGEHEQAEGGMPKNDGGTEGRNVEDLSSVTSSDGTIGQRVSNTRAWAEDPDDIQLDPMVTDVVYHDHGGECTGHGPSSSPERGWSYHMSGTHDGNVRAVPDTKVLPNAPKTTVPEEVREIDLIGLEDKFASAGLNPAAVPFVPKNQSTPTEEPPVIPEYYYGSGRRGDLSKSPPRGNVNLDSIKIYTSDDEDENQLEYEDEFAKSSSEVVIDTTPEDNDSINQEEVVGDPSDQGLEHPFPLGKFPEKEETPDVRRKDSLMQDSCKRGGVPKRLPMLSEEFECSGSDDPIIQELEREGSHPGGSLRLREPPQSSGNSRNQPDRQLKTGDAASPGGVQRPGTPMPKSRIMPIKKGAQTRSLNMLGRKTCLGRRVVQPGMFADYPPTKKARVLLRRMSN | – | – | 2
